According to the Human Domainome abundance scans (Beltran et al. 2025):
± gives the uncertainty stated by the source.

B1: Cell division cycle and apoptosis regulator protein 1, residues 625 to 674; numbered along this chain, Q8IX12 (parent)
chain: ISTPTHWSKLDPKTMKVNDLRKELESRALSSKGLKSQLIARLTKQLKVEE

Variants of: B1
Assay: abundance fitness (aPCA) (normalised: wild type 0, dead -1); higher = more abundant; growth selection in yeast, the domain comes from the species named
Settings: Homo sapiens
Work on ISTPTHWSKLDPKTMKVNDLRKELESRALSSKGLKSQLIARLTKQLKVEW [E50W] yielded an abundance fitness of -0.173 ± 0.12.
With ISTDTHWSKLDPKTMKVNDLRKELESRALSSKGLKSQLIARLTKQLKVEE [P4D] the abundance fitness was -0.074 ± 0.039.
Work on ISTPTHWSKLDPKTMKVNDLRKELENRALSSKGLKSQLIARLTKQLKVEE [S26N] yielded an abundance fitness of 0.025 ± 0.037.
Work on ISTPTHWSKLDPKTMKVNDLRKELESRALSSKGLKSTLIARLTKQLKVEE [Q37T] yielded an abundance fitness of -0.093 ± 0.032.
ISTPTHWSKLDPKTMKVNDLRKELESRALSSKSLKSQLIARLTKQLKVEE [G33S] gave an abundance fitness of -0.934 ± 0.063.
Work on ISTPTHWSKLDPKTMKVNDLRKELESRALESKGLKSQLIARLTKQLKVEE [S30E] yielded an abundance fitness of -0.071 ± 0.043.
For ISTPTHWSKLDPKTMKVNDLRKELESRALSLKGLKSQLIARLTKQLKVEE [S31L], the abundance fitness was -0.084 ± 0.032.
With ISTPTHWSKLDPKTMKVNDLRKELESRALSSGGLKSQLIARLTKQLKVEE [K32G] the abundance fitness was -0.131 ± 0.045.
With ISTPTHWSKLDPKTMKVNDLRKELESRALSSKGLKSQLIARLTKQLKIEE [V48I] the abundance fitness was 0.054 ± 0.059.
Work on ISTPTHWSKLDPKTMKVNDLRKELESRALSSKELKSQLIARLTKQLKVEE [G33E] yielded an abundance fitness of -0.857 ± 0.058.
With ISTPTHWSKLDPKTMFVNDLRKELESRALSSKGLKSQLIARLTKQLKVEE [K16F] the abundance fitness was -0.191 ± 0.077.
ISTPTHWSKLDPKTMKVNDLRKELESRALSSKGLKSQLIARLQKQLKVEE [T43Q] gave an abundance fitness of -0.068 ± 0.047.
With ISTPTHWSKLDNKTMKVNDLRKELESRALSSKGLKSQLIARLTKQLKVEE [P12N] the abundance fitness was -0.965 ± 0.17.
ISTPTHWSKLDPKTMKVNDLRKELESRALSSKQLKSQLIARLTKQLKVEE [G33Q] gave an abundance fitness of -0.819 ± 0.05.
ISTPTHWSKLDPKTMKVNDLRKELESRALSSKGLKSQLIARLPKQLKVEE [T43P] gave an abundance fitness of -0.721 ± 0.043.
Work on ISTPTHWSKLDPKTMKVNDLRKEFESRALSSKGLKSQLIARLTKQLKVEE [L24F] yielded an abundance fitness of -0.825 ± 0.068.
Work on ISTPTHWSKLDPKTMKVNDLRKELESRALSSKGLKSQLIARLTKQLKGEE [V48G] yielded an abundance fitness of -0.154 ± 0.04.
Variant ISTPTHWSKLDPKTMKCNDLRKELESRALSSKGLKSQLIARLTKQLKVEE [V17C] has an abundance fitness of 0.115 ± 0.049.
For ISTPTHWSQLDPKTMKVNDLRKELESRALSSKGLKSQLIARLTKQLKVEE [K9Q], the abundance fitness was 0.04 ± 0.043.
ISTPTHWSKLDPKTMKVNDLRKELESRALSSKGLKSQLIAILTKQLKVEE [R41I] showed an abundance fitness of -0.416 ± 0.061.
ISTPTHWSKLDPKTMKVNDLTKELESRALSSKGLKSQLIARLTKQLKVEE [R21T] showed an abundance fitness of -0.155 ± 0.037.
ISTPTHWSKLDPKTMKVNDLRKELESRALSSKGLKSQLIARLTKQLKDEE [V48D] gave an abundance fitness of -0.114 ± 0.067.
With ISTPTHWSKLDPKTMKVNDLRKELESRALSSDGLKSQLIARLTKQLKVEE [K32D] the abundance fitness was -0.092 ± 0.043.
ISTPWHWSKLDPKTMKVNDLRKELESRALSSKGLKSQLIARLTKQLKVEE [T5W] showed an abundance fitness of -0.616 ± 0.053.
ISTPTHWSKLDPKTMKVNDLRKELESRALSSKGLKSQQIARLTKQLKVEE [L38Q] showed an abundance fitness of -0.366 ± 0.046.
Work on YSTPTHWSKLDPKTMKVNDLRKELESRALSSKGLKSQLIARLTKQLKVEE [I1Y] yielded an abundance fitness of -0.206 ± 0.23.
In the case of ISTPTHWSKLDPKTMKVNDLRKRLESRALSSKGLKSQLIARLTKQLKVEE [E23R], the abundance fitness is reported as -1.07 ± 0.062.
Work on ISTPTHWSKLDPKTMKVNDLRKELESRALSSKGLKSQLIARATKQLKVEE [L42A] yielded an abundance fitness of -0.662 ± 0.072.
With ISTPTHWSKLDPKTMKVNDLRKELESRALSSKGLKSQLIARLTKQLKVEG [E50G] the abundance fitness was -0.228 ± 0.037.
Variant ISTPTHWSKLDPKTMKVNDLRKELESRALSSKGLKVQLIARLTKQLKVEE [S36V] has an abundance fitness of -0.105 ± 0.043.
ISTPTHWSKLDPKTMKVNDLRKELESRDLSSKGLKSQLIARLTKQLKVEE [A28D] showed an abundance fitness of 0.129 ± 0.064.
For ISTPTHWSKLIPKTMKVNDLRKELESRALSSKGLKSQLIARLTKQLKVEE [D11I], the abundance fitness was 0.066 ± 0.034.
Variant ISTPTHWSKLDPKTMKVNDLRKELESRALSSKGLKSQYIARLTKQLKVEE [L38Y] has an abundance fitness of -0.832 ± 0.075.
With ISTPTHWSKLDPKTMKVNQLRKELESRALSSKGLKSQLIARLTKQLKVEE [D19Q] the abundance fitness was 0.033 ± 0.03.
ISTPTHWSKLDPKTMKQNDLRKELESRALSSKGLKSQLIARLTKQLKVEE [V17Q] gave an abundance fitness of -0.082 ± 0.053.
ISTPTHWSKLDPKTKKVNDLRKELESRALSSKGLKSQLIARLTKQLKVEE [M15K] gave an abundance fitness of -0.668 ± 0.091.
With ISTPTHWSKLDPKTMKVNDLRKELESRALSSKGLKSQLIARLTKQLKVLE [E49L] the abundance fitness was -0.983 ± 0.043.
For ISTPTHWSKLDPKTMKVNDLRKELESRALSCKGLKSQLIARLTKQLKVEE [S31C], the abundance fitness was -0.013 ± 0.046.
With ISTPTHWSKLDPKTMKVNDLRKELESRALSSKGLKSQLIARLTKQLFVEE [K47F] the abundance fitness was -0.489 ± 0.095.
For ISTPTHWSKLDPKTMKVHDLRKELESRALSSKGLKSQLIARLTKQLKVEE [N18H], the abundance fitness was 0.042 ± 0.029.
Work on ISTPTHWSKLDPKTMKVNDLRKELESRALSSKGLKSYLIARLTKQLKVEE [Q37Y] yielded an abundance fitness of -0.274 ± 0.042.
With ISTPTHWSKLDPKTMKVNDLRKELESRALSSKGIKSQLIARLTKQLKVEE [L34I] the abundance fitness was -0.069 ± 0.041.
Variant ISTPTHWSKLDPKTMKVNDLRKELESRAVSSKGLKSQLIARLTKQLKVEE [L29V] has an abundance fitness of -0.476 ± 0.034.
Variant ISTPTHWSELDPKTMKVNDLRKELESRALSSKGLKSQLIARLTKQLKVEE [K9E] has an abundance fitness of -0.068 ± 0.07.
Variant ISTPTHWSKLDPKTMKVNDLRKELESPALSSKGLKSQLIARLTKQLKVEE [R27P] has an abundance fitness of -0.784 ± 0.12.
ISTPTHWSKLDPKTMKVNDLRKELESRALSSKGLKAQLIARLTKQLKVEE [S36A] gave an abundance fitness of -0.121 ± 0.043.
Variant ISTPTSWSKLDPKTMKVNDLRKELESRALSSKGLKSQLIARLTKQLKVEE [H6S] has an abundance fitness of -0.056 ± 0.031.
Variant ISTPTHWSRLDPKTMKVNDLRKELESRALSSKGLKSQLIARLTKQLKVEE [K9R] has an abundance fitness of 0.009 ± 0.038.
For ISTPTLWSKLDPKTMKVNDLRKELESRALSSKGLKSQLIARLTKQLKVEE [H6L], the abundance fitness was 0.067 ± 0.038.
Variant IMTPTHWSKLDPKTMKVNDLRKELESRALSSKGLKSQLIARLTKQLKVEE [S2M] has an abundance fitness of 0.127 ± 0.049.
ISTPTHWSKLDPKTMKVNDLRKELESRALSSKWLKSQLIARLTKQLKVEE [G33W] showed an abundance fitness of -1.07 ± 0.073.
IPTPTHWSKLDPKTMKVNDLRKELESRALSSKGLKSQLIARLTKQLKVEE [S2P] gave an abundance fitness of -0.175 ± 0.031.
